Test results: patent US20030073199A1 (SCHERING, published 2003)
Values belong to the binder of their own block, whether it stands above or below them.

Key:
[1] = target: T1, AK155 receptor complex (α-subunit CPNM1 / IL-20Rα and β-subunit IL-10Rβ), endogenous on cell lines (UniProt Q9UHF4 30-553; Q08334 20-325, limits assumed); assay: cell-based or functional assay
T1 sequence (looked up) 1: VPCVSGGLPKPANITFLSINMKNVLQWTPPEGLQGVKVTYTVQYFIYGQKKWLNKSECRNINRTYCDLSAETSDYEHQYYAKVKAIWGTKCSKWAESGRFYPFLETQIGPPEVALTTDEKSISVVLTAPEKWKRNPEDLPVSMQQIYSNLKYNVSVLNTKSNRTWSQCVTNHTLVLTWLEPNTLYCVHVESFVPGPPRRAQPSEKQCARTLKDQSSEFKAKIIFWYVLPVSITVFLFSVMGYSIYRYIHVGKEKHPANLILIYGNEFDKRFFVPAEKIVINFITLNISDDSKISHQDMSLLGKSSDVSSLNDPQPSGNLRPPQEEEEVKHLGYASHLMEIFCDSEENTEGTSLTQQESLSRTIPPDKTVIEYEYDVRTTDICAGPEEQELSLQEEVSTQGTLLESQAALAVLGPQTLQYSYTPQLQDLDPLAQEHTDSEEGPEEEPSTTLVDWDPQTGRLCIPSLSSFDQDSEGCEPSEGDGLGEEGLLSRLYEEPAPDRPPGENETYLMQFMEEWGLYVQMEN
T1 sequence (looked up) 2: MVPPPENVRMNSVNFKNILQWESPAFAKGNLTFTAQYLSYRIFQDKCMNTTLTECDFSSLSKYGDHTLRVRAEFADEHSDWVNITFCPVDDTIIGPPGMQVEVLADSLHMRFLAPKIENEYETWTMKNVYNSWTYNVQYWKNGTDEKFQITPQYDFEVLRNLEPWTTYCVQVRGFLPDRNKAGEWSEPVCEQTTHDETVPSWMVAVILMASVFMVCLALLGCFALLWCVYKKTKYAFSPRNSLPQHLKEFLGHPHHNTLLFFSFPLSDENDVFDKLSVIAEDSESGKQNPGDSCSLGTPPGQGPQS

[2] = target: the molecule itself; assay: SDS-PAGE and western blot of COS-7 cell extracts with and without denaturation (about 36 kDa against about 19 kDa)
Text: Further evidence for the dimeric state of AK155 was provided by analysis of AK155 extracted from mammalian cells. AK155 was cloned and expressed using the eukaryotic expression vector pME18S in COS-7 cells, where the protein was cloned with a FLAG sequence. The cells were extracted and the extracted protein was loaded as is, or heated with reductant, prior to loading on the electrophoresis gel. AK155 was not purified prior to analysis by SDS PAGE. Detection was by rabbit antiserum prepared against AK155 or by anti-FLAG monoclonal antibody.

fold increase of IL-8 concentration, HaCaT cells, with against without AK155 [1]: 5 fold
B1: AK155 (preparation not stated) (ligand)
chain: KHKQSSFTKSCYPRGTLSQAVDALYIKAAWLKATIPEDRIKNIRLLKKKTKKQFMKNCQFQEQLLSFFMEDVFGQLQLQGCKKIRFVEDFHSLRQKLSHCISCASSAREMKSITRMKRIFYRIGNKGIYKAISELDILLSWIKKLLESSQ

B2: AK155 cloned with a FLAG sequence, expressed in COS-7 cells from pME18S (ligand, not shown: small tags and cut ends)
chain: B1 chain
notes: Analysed unpurified in COS-7 cell extracts; also called FLAG-tagged AK155
binding result [2]: binds
